Here are results for one protein from patent US20160280799.

For this data set, the target named is All other MMP-12 binders.

B1: human MMP-12 catalytic domain (protein)
chain: GPVWRKHYITYRINNYTPDMNREDVDYAIRKAFQVWSNVTPLKFSKINTGMADILVVFARGAHGDFHAFDGKGGILAHAFGPGSGIGGDAHFDEDEFWTTHSGGTNLFLTAVHEIGHSLGLGHSSDPKAVMFPTYKYVDINTFRLSADDIRGIQSLYG
For B1, the “MMP-12 proteolytic activity, colorimetric assay (BIOMOL AK-402), VHH at 7 µM” value is recorded as “did not inhibit MMP-12”.
